The supplement of paper PMC7877785
± gives the uncertainty stated by the source.

Assay: self-splicing fitness, log relative to wild type (ln ratio); higher = more splicing; Tetrahymena group I intron in knt gene, E. coli kanamycin selection, DiMSum; sequences stand for … in CUCUCU…GGAGGGAAAAGUUAUCAGGCAUGCACCUGGUAGCUAGUCUUUAAACCAAUAGAUUGCAUCGGUUUAAAAGGCAAGACCGUCAAAUUGCGGGAAAGGGGUCAACAGCCGUUCAGUACCAAGUCUCAGGGGAAACUUUGAGAUGGCCUUGCAAAGGGUAUGGUAAUAAGCUGACGGACAUGGUCCUAACCACGCAGCCAAGUCCUAAGUCAACAGAUCUUCUGUUGAUAUGGAUGCAGUUCACAGACUAAAUGUCGGUCGGGGAAGAUGUAUUCUUCUCAUAAGAUAUAGUCGGACCUCUCCUUAAUGGGAGCUAGCGGAUGAAGUGAUGCAACACUGGAGCCGCUGGGAACUAAUUUGUAUGCGAAAGUAUAUUGAUUAGUUUUGGAGUACUCGUGGUCG
Method in brief: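 Library with all eight P1ex-region intron nucleotides randomised, intron inside the knt kanamycin-resistance gene on pET-22b(+), in E. coli BL21(DE3). Cells grew overnight at 37°C or 30°C on LB agar with or without 25 μg/mL kanamycin (plus 100 μg/mL carbenicillin, 50 μM IPTG, 0.2% rhamnose), in six replicate transformations. Pooled colonies were amplicon-sequenced on Illumina HiSeq 2500. DiMSum fitness is the error-weighted combination of wild-type-normalised replicate fold changes, kanamycin versus none.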

Row | Sequence | self-splicing fitness (ln) (30 °C) | self-splicing fitness (ln) (37 °C)
1 | CGGCAGCAAUAUUACGCGCG | -2.65 ± 0.22 | -1.54 ± 0.23
2 | CGGCAGCAAUAUUACGCUUG | -2.4 ± 0.15 | -2.31 ± 0.23
3 | CGGCAGCAAUAUUACGGCAA | -1.1 ± 0.083 | -1.27 ± 0.1
4 | CGGCAGCAAUAUUACGGCCG | -3.13 ± 0.39 | -1.42 ± 0.39
5 | CGGCAGCAAUAUUACGGUCA | -0.0453 ± 0.068 | -0.156 ± 0.083
6 | CGGCAGCAAUAUUACGGUUA | -0.164 ± 0.067 | -0.476 ± 0.059
7 | CGGCAGCAAUAUUACGUAAG | -0.428 ± 0.059 | 0.0199 ± 0.075
8 | CGGCAGCAAUAUUACGUAGG | -0.38 ± 0.075 | 0.0683 ± 0.097
9 | CGGCAGCAAUAUUACGUAUC | -3.9 ± 0.33 | -2.86 ± 0.27
10 | CGGCAGCAAUAUUACGUCAC | -3.84 ± 0.25 | -2.81 ± 0.29
11 | CGGCAGCAAUAUUACGUCCC | -0.557 ± 0.23 | 0.728 ± 0.37
12 | CGGCAGCAAUAUUACGUUCU | -0.518 ± 0.08 | -0.416 ± 0.11
13 | CGGGAGCAAUAUUACGAAAU |  | -1.65 ± 0.44
14 | CGGGAGCAAUAUUACGACAG | -1.7 ± 0.22 | -0.944 ± 0.38
15 | CGGGAGCAAUAUUACGACGC | -4.16 ± 0.46 | -3.31 ± 0.3
16 | CGGGAGCAAUAUUACGCAAC | -2.66 ± 0.24 | 
17 | CGGGAGCAAUAUUACGCAAU | -3.15 ± 0.39 | 
18 | CGGGAGCAAUAUUACGCACC | -3.47 ± 0.39 | 
19 | CGGGAGCAAUAUUACGCAGG | -3.04 ± 0.36 | -0.973 ± 0.27
20 | CGGGAGCAAUAUUACGCGCU | -3.25 ± 0.32 | 
21 | CGGGAGCAAUAUUACGGAGU | -3.92 ± 0.27 | -2.77 ± 0.2
22 | CGGGAGCAAUAUUACGGAUU | -3.51 ± 0.33 | -1.27 ± 0.28
23 | CGGGAGCAAUAUUACGGCAA | -3.64 ± 0.43 | 
24 | CGGGAGCAAUAUUACGGGGA | -2.04 ± 0.3 | -1.83 ± 0.23
25 | CGGGAGCAAUAUUACGUAAC | -1.35 ± 0.27 | 
26 | CGGGAGCAAUAUUACGUAAG | -1.46 ± 0.17 | -0.321 ± 0.18
27 | CGGGAGCAAUAUUACGUAGG | -1.91 ± 0.099 | -1.6 ± 0.17

Row | Sequence | self-splicing fitness (ln) (30 °C) | self-splicing fitness (ln) (37 °C)
28 | CGGGAGCAAUAUUACGUCGU | -3.3 ± 0.26 | -2.35 ± 0.3
29 | CGGGAGCAAUAUUACGUGAU |  | -0.773 ± 0.19
30 | CGGGAGCAAUAUUACGUUGA | -3.82 ± 0.39 | -2 ± 0.23
31 | CGGUAGCAAUAUUACGAAUU | -2.07 ± 0.24 | -2.34 ± 0.24
32 | CGGUAGCAAUAUUACGACUC | -1.01 ± 0.32 | 1.23 ± 0.43
33 | CGGUAGCAAUAUUACGAUCA | -0.493 ± 0.085 | 0.196 ± 0.12
34 | CGGUAGCAAUAUUACGAUGC | -3.7 ± 0.2 | -0.598 ± 0.13
35 | CGGUAGCAAUAUUACGAUUU | -2.17 ± 0.17 | -0.333 ± 0.15
36 | CGGUAGCAAUAUUACGCAAU |  | -3.67 ± 0.46
37 | CGGUAGCAAUAUUACGCAGC | -2.14 ± 0.24 | -1.72 ± 0.31
38 | CGGUAGCAAUAUUACGCCAC | -3.5 ± 0.39 | -2.03 ± 0.27
39 | CGGUAGCAAUAUUACGCCGA | -0.997 ± 0.24 | -1.5 ± 0.25
40 | CGGUAGCAAUAUUACGCGAA | -2.83 ± 0.25 | -1.28 ± 0.19
41 | CGGUAGCAAUAUUACGCUAA | -2.88 ± 0.28 | -1.85 ± 0.18
42 | CGGUAGCAAUAUUACGCUUU | -3.21 ± 0.27 | -0.482 ± 0.12
43 | CGGUAGCAAUAUUACGGAGA | -3.87 ± 0.32 | -2.72 ± 0.21
44 | CGGUAGCAAUAUUACGGAGG | -2.24 ± 0.087 | -0.94 ± 0.09
45 | CGGUAGCAAUAUUACGGAUC | -4.27 ± 0.33 | -1.68 ± 0.23
46 | CGGUAGCAAUAUUACGGCAC | -2.11 ± 0.26 | -1.99 ± 0.36
47 | CGGUAGCAAUAUUACGGUAA | -2.99 ± 0.29 | -3.12 ± 0.3
48 | CGGUAGCAAUAUUACGUGGG | -3.79 ± 0.17 | -3.11 ± 0.14
49 | CGGUAGCAAUAUUACGUGUG | -0.17 ± 0.062 | 0.0947 ± 0.09
50 | CGGUAGCAAUAUUACGUUGG | -1.26 ± 0.091 | -0.39 ± 0.084
51 | CGGUAGCAAUAUUACGUUUA | -3.46 ± 0.2 | -2.03 ± 0.13
52 | CGGUAGCAAUAUUACGUUUU | -3.83 ± 0.26 | -2.41 ± 0.19
53 | CGUAAGCAAUAUUACGAAAC | -2.84 ± 0.32 | 
54 | CGUAAGCAAUAUUACGAACC | -0.935 ± 0.24 | -1.46 ± 0.24

Row | Sequence | self-splicing fitness (ln) (30 °C) | self-splicing fitness (ln) (37 °C)
55 | CGUAAGCAAUAUUACGACUC | -3.64 ± 0.3 | -0.95 ± 0.17
56 | CGUAAGCAAUAUUACGAGUA | -4.09 ± 0.39 | -1.93 ± 0.21
57 | CGUAAGCAAUAUUACGAUUU | -2.66 ± 0.14 | -1.58 ± 0.12
58 | CGUAAGCAAUAUUACGCAAG | -1.99 ± 0.13 | -1.01 ± 0.13
59 | CGUAAGCAAUAUUACGCCAU | -3.78 ± 0.24 | -2.7 ± 0.23
60 | CGUAAGCAAUAUUACGCCCA | -1.83 ± 0.19 | -0.135 ± 0.24
61 | CGUAAGCAAUAUUACGCCCU | -1.4 ± 0.16 | -0.426 ± 0.16
62 | CGUAAGCAAUAUUACGCCUC | -4.31 ± 0.47 | -1.44 ± 0.44
63 | CGUAAGCAAUAUUACGCUUA | -3.67 ± 0.37 | -2.91 ± 0.23
64 | CGUAAGCAAUAUUACGGAAU | -3.8 ± 0.43 | -1.85 ± 0.22
65 | CGUAAGCAAUAUUACGGAGU | -3.13 ± 0.17 | -2.89 ± 0.19
66 | CGUAAGCAAUAUUACGGCAU | -3.27 ± 0.27 | -2.37 ± 0.15
67 | CGUAAGCAAUAUUACGGUCC | -2.31 ± 0.18 | -2.18 ± 0.24
68 | CGUAAGCAAUAUUACGGUGA | -3.29 ± 0.17 | -3.18 ± 0.22
69 | CGUAAGCAAUAUUACGGUGC | -2.65 ± 0.15 | -3.7 ± 0.31
70 | CGUCAGCAAUAUUACGAAAG | -0.9 ± 0.073 | 0.129 ± 0.096
71 | CGUCAGCAAUAUUACGAAUU | -2.82 ± 0.2 | -0.915 ± 0.14
72 | CGUCAGCAAUAUUACGACGA | -1.34 ± 0.2 | -1.2 ± 0.21
73 | CGUCAGCAAUAUUACGAGAA | -2.97 ± 0.38 | -2.09 ± 0.29
74 | CGUCAGCAAUAUUACGAGCU | -3.17 ± 0.13 | -1.45 ± 0.13
75 | CGUCAGCAAUAUUACGAUGG | -1.27 ± 0.054 | -0.0354 ± 0.084
76 | CGUCAGCAAUAUUACGCCAA | -3.6 ± 0.3 | -1.73 ± 0.18
77 | CGUCAGCAAUAUUACGCUAG | -0.963 ± 0.098 | -0.795 ± 0.15
78 | CGUCAGCAAUAUUACGCUGG | -2.6 ± 0.3 | -2.14 ± 0.34
79 | CGUCAGCAAUAUUACGGAGA | -3.44 ± 0.29 | -2.76 ± 0.27
